Experiments:
[1] = biological target: Full-length human OTUD2 (human) (UniProt Q5VVQ6)
[2] = biological target: OTUD3 (aa 52-209) (human) (UniProt Q5T2D3)
[3] = biological target: Full-length human OTUD2 (human) (UniProt Q5VVQ6); test: covalent labelling with an active site-directed probe (SDS-PAGE, fluorescence scan); 0.1 μM OTUD2 constructs with 1 μM TAMRA-labeled K11-linked diUb-PA, time course up to 60 min, bands quantified
[4] = biological target: OTUD2 OTU (aa 147-314) (human) (UniProt Q5VVQ6); test: as above
[5] = biological target: Full-length human OTUD2 (human) (UniProt Q5VVQ6); test: covalent labelling with an active site-directed probe (SDS-PAGE, fluorescence scan); 0.2 μM OTUD2 with 2 μM TAMRA-labeled mUb-PA or diUb-PA probes, time course, 30°C, 20 mM Tris-HCl pH 7.5, 150 mM NaCl; bands quantified and fitted by pseudo-first-order one-phase association, plateau forced to that of K11

Sequence of UniProt Q5T2D3 (Q5T2D3 52-209): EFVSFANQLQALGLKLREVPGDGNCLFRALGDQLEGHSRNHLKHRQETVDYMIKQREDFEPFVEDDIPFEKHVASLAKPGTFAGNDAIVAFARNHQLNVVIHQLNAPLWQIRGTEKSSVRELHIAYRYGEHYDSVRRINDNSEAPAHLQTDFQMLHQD

Substance	KM of AMC release from diUb-AMC (Michaelis-Menten, 15 nM OTUD2, substrate up to 20 μM) [1] [µM]	KM of AMC release from diUb-AMC (Michaelis-Menten, 15 nM OTUD3) [2] [µM]	t1/2 of covalent probe labelling [5] [min]	further results
K11 triazole-linked diUb-AMC substrate (from UniProt P0CG48 1-76)	20	3.7		
TAMRA-labeled K11 triazole-linked diUb-PA probe (from UniProt P0CG48 1-75; P0CG48 1-75)			3.5	t1/2 of covalent probe labelling [3]: 5.3 min; t1/2 of covalent probe labelling [4]: 6.8 min

Now from value to substance, other results behind:

KM of AMC release from diUb-AMC (Michaelis-Menten, 15 nM OTUD2, substrate up to 20 μM) [1] [µM]	KM of AMC release from diUb-AMC (Michaelis-Menten, 15 nM OTUD3) [2] [µM]	t1/2 of covalent probe labelling [5] [min]	Substance	further results
100			K33 triazole-linked diUb-AMC substrate (from UniProt P0CG48 1-76)	
		8.5	TAMRA-labeled K33 triazole-linked diUb-PA probe (from UniProt P0CG48 1-75; P0CG48 1-75)	
	4.7		K27 triazole-linked diUb-AMC substrate (from UniProt P0CG48 1-76)	
